Test results published in patent publication EP4725968A1 (Salubris (Chengdu) Biotech Co., Ltd., dated 2024).
Where a chain is given by its changes, count along the chain named.

T1: GPC3-A peptide
T1 construct: Peptide of the GPC3 antigen
T1 peptide: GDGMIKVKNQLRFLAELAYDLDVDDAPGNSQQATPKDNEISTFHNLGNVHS

T2: GPC3-B peptide
T2 peptide: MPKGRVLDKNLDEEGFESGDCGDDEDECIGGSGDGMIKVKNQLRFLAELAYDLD

T3: GPC3-B3 (human)
T3 construct: Overlapping peptide of GPC3-B
T3 peptide: DKNLDEEGFESG

T4: GPC3-B8
T4 construct: also called long fragments containing GPC3-B3
T4 peptide: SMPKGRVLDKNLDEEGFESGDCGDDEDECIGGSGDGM

B1: hYP7HM (antibody, human IgG1, kappa, L234A L235A, V domains shown)
VH: EVQLVESGGGLVQPGGSLRLSCAASGFTFNKNAMNWVRQAPGKGLEWVGRIRNKTNNYATYYADSVKGRFTISRDDSKNSLYLQMNSLKTEDTAVYYCVAGNSFAYWGQGTLVTVSA
VL: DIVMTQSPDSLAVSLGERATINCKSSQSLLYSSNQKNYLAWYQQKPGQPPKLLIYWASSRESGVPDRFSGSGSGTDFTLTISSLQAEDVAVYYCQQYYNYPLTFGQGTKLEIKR
notes: Control anti-GPC3 antibody; also called control antibody hYP7HM; control anti-GPC3 antibody hYP7HM
B2: GC067 (antibody, V domains shown)
VH: EVQLLESGGGVVQPGRSLRLSCAASGFTFSSYAMHWVRQAPGKGLEWVAVISYDGSNKYYADSVKGRFTISRDNSKNTLYLQMNSLRAEDTAVYYCARRLRGSGMDVWGQGTPVTVSS
VL: not shown
notes: Detected with anti-human IgG-Fc-HRP
B3: GC139 (antibody, V domains shown)
VH: EVQLVESGGGLIQPGGSLRLSCAASGFTFSSYAMHWVRQAPGKGLEYVSAISSNGGSTYYADSVKGRFTISRDNSKNTLYLQMSSLRPDDTAVYYCVRGWIRPPPGSFDLWGQGTTVTVSS
VL: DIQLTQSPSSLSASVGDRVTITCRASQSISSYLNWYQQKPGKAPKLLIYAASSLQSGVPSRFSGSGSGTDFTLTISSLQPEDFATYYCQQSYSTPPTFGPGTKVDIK
notes: as for B2
B4: GC147 (antibody, V domains shown)
VH: B3 VH with I12V, D62N, S84G, P88A, D89E, T91M, T116P
VL: AIRLTQSPSSLSASVGDRVSITCRASQSISTFLNWYQQKPGKAPNLLIYSASTLQSGVPSRFSGSGSGTDFTLTISSLQPEDFATYYCQQSYSSPPTFGQGTKLEIK
notes: as for B2
B5: GC90 (antibody, V domains shown)
VH: QVQLLESGGGLVQPGGSLRVSCAASGFTFNSYAMSWVRQAPGKGLEWVASIKSSGDRVQYADSVKGRFTISRDNSKNTVYLEMNSLRAEDTAIYYCAKPQWSSPQRTFEVWGQGTPVTVSS
VL: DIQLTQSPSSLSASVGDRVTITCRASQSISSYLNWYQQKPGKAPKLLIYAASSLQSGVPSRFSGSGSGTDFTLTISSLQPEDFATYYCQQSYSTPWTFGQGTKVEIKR
notes: Human IgG1 / kappa; also called GC90 monoclonal antibody; humanized monoclonal antibody GC90
B6: GC008 (antibody, V domains shown)
VH: EVQLLESGGGLVQPGGSMRLSCAASEIDFSVYALGWSRQAPGKQRELVATITTSSTTTYADSVKGRFTISRDNAKNTVYLQMNSLKPEDTAVYYCHTLRRTGSGIVPGRIWGQGTPVTVSS
VL: DIQLTQSPSSLSASVGDRVTITCQASQDIDNSVTWYQQRPGKAPSLLISDASILESGVPSRFSGRGSGTHFTLSITSLQPEDIATYYCQQYENLPITFGQGTRLEIK
notes: Detected with anti-human IgG-Fc-HRP in the ELISA, so it carried a human Fc
B7: GC010 (antibody, V domains shown)
VH: B2 VH with R99D, L100E, R101S, G102R, S103R, G104K, M105F, V107Y, P113T
VL: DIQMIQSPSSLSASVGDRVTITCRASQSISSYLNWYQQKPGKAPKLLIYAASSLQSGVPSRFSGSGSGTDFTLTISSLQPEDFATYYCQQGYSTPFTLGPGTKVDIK
notes: as for B2
B8: GC011 (antibody, V domains shown)
VH: EVQLLESGGGVVQPGRSLRLSCAASGFTFSSYGMHWVRQAPGKGLEWVAVISYDGSNKYYADSVKGRFTISRDNSKNTLYLQMNSLRAEDTAVYYCAKNPSLDYWGQGTTVTVSS
VL: NIQMTQSPSSLSASVGDRVTITCRASQSITRYLNWYQQKPGKGPKLLIYAASRLQSGVPSRFSGSGSGTDFTLTISSLQPEDFATYYCQQSHSIPRTFGQGTKLEIK
notes: as for B2
B9: GC025 (antibody, V domains shown)
VH: EVQLLESGGGVVQPGRSLRLSCAASGFTFSSYAMHWVRQAPGKGLEWVAVISYDGSNKYYADSVKGRFTISRDNSKNTLYLQMNSLRAEDTAVYYCARRQRAAIDYWGQGTTVTVSS
VL: DIQLTQSPSSLSASVGDRVTITCRASQSISSYLSWYQQKPGKAPKLLIYGASSLQSGVPSRFSGSGSGTDFTLTISSLQPEDFATYSCQQSYSTQFTFGPGTKVDIK
notes: as for B2
B10: GC035 (antibody, V domains shown)
VH: B2 VH with Q13R, L100K, R101S, G104S, M105F, V107Y
VL: DIQLTQSPSSLSASVGDRVTITCRAGQTINNYLHWYQQKPGKAPKLLIFAASSLQSGVPSRFSGSGSGTDFTLTISSLQPEDFATYYCQQSYSPPLTFGGGTRVEIK
notes: as for B2
B11: GC037 (antibody, V domains shown)
VH: B3 VH with V5L, I12V, D62N, D73H, N74P, T78I, Y80F, Q82E, S84N, T116P
VL: AIRLTQFPSSLSASVGDRVTITCRARQSIDNYLNWYQEKPGKAPKLLIYAASSLQSGVPSRFSGSGSGTEFTLTISSLQPDDFAAYYCQQSYDSPPTFGQGTKVEIK
notes: as for B2
B12: GC053 (antibody, V domains shown)
VH: B3 VH with V5L, I12V, D62N, S84G
VL: NIQMTQSPSSLSAFVGDRVTITCRASQSISRYLNWYQHKPGQAPKLLMYAASTLQDEVPSRFSGSGSGTYFTLTISSLEPEDFATYYCQQSYSTPPTFGGGTKVEIK
notes: as for B2

Molecular target: T1, GPC3-A peptide
Test: ELISA, peptide coated at 6 µg/mL
B1: binds.

Molecular target: T2, GPC3-B peptide
Test: ELISA, peptide coated at 6 µg/mL
B2: binds. B3: binds. B4: binds. B5: binds. B6: binds. B7: binds. B8: binds. B9: binds. B10: binds. B11: binds. B12: binds.

Each binder was assayed against T5, Mouse GPC3 (ACRO Biosystems, GP3-M52H3) (mouse, UniProt Q8CFZ4 25-558) (assay: ELISA, GPC3 protein coated at 6 µg/mL; × indicates no affinity recognition).
T5 construct: also called mouse Gpc3 protein; mouse GPC3 protein
T5 sequence (Q8CFZ4 25-558 limits assumed): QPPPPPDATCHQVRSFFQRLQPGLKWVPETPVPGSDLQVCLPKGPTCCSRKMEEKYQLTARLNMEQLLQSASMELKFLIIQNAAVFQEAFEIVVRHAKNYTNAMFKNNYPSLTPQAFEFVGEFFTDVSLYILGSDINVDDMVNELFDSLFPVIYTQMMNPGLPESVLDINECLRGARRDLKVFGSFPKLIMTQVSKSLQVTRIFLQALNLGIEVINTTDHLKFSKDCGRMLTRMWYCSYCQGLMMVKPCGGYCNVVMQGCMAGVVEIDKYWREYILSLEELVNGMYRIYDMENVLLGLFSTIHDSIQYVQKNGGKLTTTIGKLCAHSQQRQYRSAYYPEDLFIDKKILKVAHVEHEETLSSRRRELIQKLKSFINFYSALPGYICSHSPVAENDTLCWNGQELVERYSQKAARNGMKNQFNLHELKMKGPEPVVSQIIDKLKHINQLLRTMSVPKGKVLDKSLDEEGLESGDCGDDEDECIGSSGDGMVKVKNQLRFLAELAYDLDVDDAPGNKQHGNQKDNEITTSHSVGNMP
B5: no binding (tested: 30 nM).

Molecular target: T3, GPC3-B3
Test: ELISA, overlapping peptide coated at 6 µg/mL
B5: binds.

Molecular target: T4, GPC3-B8
Test: ELISA, overlapping peptide coated at 6 µg/mL
B5: binds.
